We go through 5 molecules from article PMC10477244.

The target in data set [1] is T1, SARS-CoV-2 spike RBD (BEI NR-53800) (SARS-CoV-2 Wuhan-Hu-1, UniProt P0DTC2 319-541). Put plainly: ELISA-type bead assay (SA-HRP/TMB); 0.3 uM aptamer.
In data set [2] the target is T1, SARS-CoV-2 spike RBD (BEI NR-53800). Put plainly: ELISA-type bead assay (SA-HRP/TMB).
Data set [3] has the same target. Briefly: fluorescence binding, carbon-dot aptamer on Ni-NTA@RBD.

B1: aptamer T (Apt@T2) (ssDNA)
DNA: GGTATTGAGGGTCGCATCGTAATAGCGCATGTTGTGAGGCAGGCGCGAATCAGCTCGTGAGATGGCTCTAACTCTCCTCT
As for B1, the binding result in data set [1] was “binds”.

B2: aptamer U (Apt@U2) (ssDNA)
DNA: GGTATTGAGGGTCGCATCGTAATAGCGCATGTTGTGAGGCGGCGGAGTCATGTCGTGGGATGGCTCTAACTCTCCTCT
For the molecule B2, in data set [2], the binding result was “binds”.

B3: aptamer R (Apt@R2) (ssDNA)
DNA: GGTATTGAGGGTCGCATCGTTACTGGACCAAACAGCACAAAGGACGCCCATAAACCCGGATGGCTCTAACTCTCCTCT
As to B3, the Kd in data set [3] worked out at 0.125 µM.

B4: aptamer S (Apt@S2) (ssDNA)
DNA: GGTATTGAGGGTCGCATCGAAACAGGGCGTGATACGACGCGACGGCGTACTGTGGTGGGATGGCTCTAACTCTCCTCT
As to B4, the binding result in data set [1] is on record as “binds”.

B5: aptamer W (Apt@W2) (ssDNA)
DNA: GGTATTGAGGGTCGCATCGACACCGGGAGTGATACGTCGCGAGCACGTACTGTGTTGGGATGGCTCTAACTCTCCTCT
On to B5, for which, in data set [2], the binding result is listed as “binds”.
